In general, stoichiometry N refers to a count of units in the complex or per binding partner.

In this assay the target is T1, D614G VFLIP spike trimer (SARS-CoV-2, ancestral with D614G, VFLIP …, stabilised).
T1 construct: also called stabilized D614G ancestral trimeric spike ("VFLIP"); trimeric spike
In words: cryo-EM structure. The note with it: both partners purified.

B1: GAR05 Fab (Fab, V domains shown)
VH: EVQLVQSGGDLVQPGGSLRLSCAVSGFTVSRNYMTWVRQAPGRGLEWVSLIYPGGSAFYADSVKGRFTISRDNSKNTLYLQMNSLRVEDTAVYYCARDPVSTGHYHDSDYWGQGTLVTVSS
VL: DIQMTQSPSALSASVGDRVTITCQASQDINKFLNWYQQKPGKAPKLLIYDASNLETGVPSRFSGGGSGTDFTFTISSLQPEDIATYYCHQYDNLPRTFGQGTKVELK
notes: also called GAR05 Fab fragment; source: ExpiCHO, purified (Talon resin, S200 SEC)
With B1, the “stoichiometry N” value turned out to be 3 Fabs per spike trimer.

B2: GAR03 Fab (Fab, V domains shown)
VH: QVQLVQSGAEVKKPGASVKVSCKASGYTFSSYDINWVRQAPGQGLEWMGWMSPNSGNTGYAQKFQGRVTMTRSTSMSTAYMELSSLRSEDTAVYFCARMSSSLTNYLDYWGQGTLVTVSS
VL: SYVLTQPPSVAVAPGQTARIRCGENDIGSKNVHWYQQKSGQAPVLVVYDDSDRPSGIPERFSGSNSGNTATLTISRVEAGDEADYYCQVWDSTGDHPDVVFGGGTKLTVL
notes: also called GAR03 antibody Fab; source: ExpiCHO, purified (Talon resin, S200 SEC)
Take B2: the “stoichiometry N” value came to 1 Fab per spike trimer.

The values above are taken from publication PMC9907207 (Nature Communications, 2023).
